Measurements: the supplement of paper PMC10724198
± gives the standard deviation of the averaged measurements.

What was measured:
[1] = test system: Saccharomyces cerevisiae; experiment: protein stability index of tFT-peptide fusion (C-terminal peptide) (PSI (0-1 scale)); higher = more stable (slower turnover)
Description: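 MPS profiling in S. cerevisiae of the tFT-X12 degron library: putative degron peptides plus stable controls, 12 aa, fused to the C-terminus of a sfGFP-mCherry timer. Cells are FACS-sorted into 8 mCherry/sfGFP bins and deep-sequenced. PSI runs from 0 (unstable) to 1 (stable). Backgrounds are wild type, das1Δ and doa10Δ at 30 °C, and wild type, das1Δ, cdc34-1 and cdc53-1 at 37 °C; 2-3 technical replicates each.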

[2] = test system: Saccharomyces cerevisiae; experiment: as above; settings: genetic background: wild type; temperature: 30 C
[3] = genetic background: cdc34-1, temperature: 37 C
[4] = genetic background: cdc53-1, temperature: 37 C
[5] = genetic background: das1 deletion, temperature: 30 C
[6] = genetic background: das1 deletion, temperature: 37 C
[7] = genetic background: doa10 deletion, temperature: 30 C
[8] = genetic background: wild type, temperature: 30 C
[9] = genetic background: wild type, temperature: 37 C
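Note: PSI is a weighted mean of sequencing reads over stability bins, variants kept only with over 10 reads, mCherry proximal and sfGFP distal, peptide attached via GGGS linker.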

Sequence | protein stability index [1, 3] | protein stability index [1, 4] | protein stability index [1, 5] | protein stability index [1, 6] | protein stability index [1, 7] | protein stability index [1, 8] | protein stability index [1, 9] | protein stability index [2]
ISHLQCFFVVML | 0.439 ± 0.029 | 0.507 ± 0.025 | 0.355 ± 0.026 | 0.563 ± 0.016 | 0.3759 ± 0.0013 | 0.346 ± 0.034 | 0.485 ± 0.0089 | 0.489 ± 0.042
ISLSSLYVVMYV | 0.413 ± 0.0072 | 0.418 ± 0.041 | 0.227 ± 0.026 | 0.428 ± 0.011 | 0.178 ± 0.0094 | 0.195 ± 0.027 | 0.3919 ± 0.0016 | 0.291 ± 0.024
IVFFVLFRFWRF | 0.354 ± 0.019 | 0.3827 ± 0.0031 | 0.326 ± 0.038 | 0.46 ± 0.025 | 0.318 ± 0.02 | 0.294 ± 0.017 | 0.442 ± 0.013 | 0.32 ± 0.047
IVRLGRWLGLSC | 0.657 ± 0.032 | 0.691 ± 0.025 | 0.613 ± 0.055 | 0.709 ± 0.013 | 0.215 ± 0.031 | 0.261 ± 0.028 | 0.494 ± 0.028 | 0.352 ± 0.052
IYEAFLVFCLCG | 0.426 ± 0.016 | 0.454 ± 0.011 | 0.326 ± 0.028 | 0.543 ± 0.014 | 0.284 ± 0.016 | 0.287 ± 0.015 | 0.4385 ± 0.0019 | 0.365 ± 0.021
KKKEIIKIIKIN | 0.311 ± 0.033 | 0.643 ± 0.044 | 0.697 ± 0.065 | 0.72 ± 0.048 | 0.0624 ± 0.022 | 0.0729 ± 0.034 | 0.0954 ± 0.039 | 0.127 ± 0.013
KKKKKKKIKIMS | 0.583 ± 0.0096 | 0.706 ± 0.019 | 0.636 ± 0.024 | 0.689 ± 0.018 | 0.176 ± 0.03 | 0.232 ± 0.051 | 0.293 ± 0.032 | 0.266 ± 0.048
KKKNIYKVMKLE | 0.65 ± 0.011 | 0.706 ± 0.011 | 0.646 ± 0.035 | 0.72636 ± 0.00051 | 0.146 ± 0.043 | 0.19 ± 0.041 | 0.307 ± 0.025 | 0.403 ± 0.055
KLCVGLVLSFVC | 0.47 ± 0.021 | 0.503 ± 0.043 | 0.341 ± 0.028 | 0.5351 ± 0.0032 | 0.176 ± 0.0034 | 0.206 ± 0.023 | 0.3964 ± 0.0008 | 0.257 ± 0.053
KWGRFQQVMVIN | 0.558 ± 0.037 | 0.664 ± 0.014 | 0.5 ± 0.029 | 0.641 ± 0.0096 | 0.136 ± 0.0045 | 0.156 ± 0.022 | 0.34 ± 0.025 | 0.266 ± 0.0042
KYQVIILQTRKI | 0.578 ± 0.014 | 0.754 ± 0.0091 | 0.634 ± 0.063 | 0.765 ± 0.032 | 0.201 ± 0.064 | 0.252 ± 0.053 | 0.491 ± 0.02 | 0.398 ± 0.0041
LACGIDGYYWRH | 0.703 ± 0.048 | 0.7448 ± 0.0019 | 0.667 ± 0.015 | 0.73851 ± 0.00042 | 0.6631 ± 0.0021 | 0.682 ± 0.028 | 0.709 ± 0.017 | 0.792 ± 0.027
LAFMYFVCPRLA | 0.598 ± 0.045 | 0.645 ± 0.0077 | 0.56 ± 0.02 | 0.6511 ± 0.0057 | 0.245 ± 0.0083 | 0.269 ± 0.031 | 0.464 ± 0.022 | 0.369 ± 0.0057
LAVVLVWVPGRW | 0.443 ± 0.037 | 0.526 ± 0.057 | 0.335 ± 0.032 | 0.563 ± 0.019 | 0.311 ± 0.0059 | 0.347 ± 0.023 | 0.561 ± 0.05 | 0.418 ± 0.026
LCFFLAFSFVFF | 0.253 ± 0.017 | 0.324 ± 0.011 | 0.231 ± 0.025 | 0.382 ± 0.026 | 0.289 ± 0.00096 | 0.236 ± 0.022 | 0.3374 ± 0.0016 | 0.296 ± 0.0099
LCFGMVELMWIY | 0.418 ± 0.057 | 0.52 ± 0.071 | 0.388 ± 0.046 | 0.521 ± 0.011 | 0.371 ± 0.047 | 0.377 ± 0.037 | 0.471 ± 0.018 | 0.458 ± 0.0053
LCFRLVSYLCIN | 0.497 ± 0.054 | 0.694 ± 0.013 | 0.591 ± 0.048 | 0.6781 ± 0.0015 | 0.223 ± 0.0073 | 0.221 ± 0.011 | 0.37 ± 0.013 | 0.39 ± 0.0077
LCGIFTFRLSLL | 0.693 ± 0.06 | 0.7815 ± 0.0027 | 0.668 ± 0.028 | 0.706 ± 0.014 | 0.245 ± 0.026 | 0.273 ± 0.024 | 0.437 ± 0.005 | 0.388 ± 0.051
LCIYNFGWWFCV | 0.494 ± 0.011 | 0.637 ± 0.044 | 0.561 ± 0.036 | 0.6389 ± 0.0054 | 0.121 ± 0.015 | 0.134 ± 0.0087 | 0.128 ± 0.014 | 0.183 ± 0.056
LCLLCWIPCSFR | 0.629 ± 0.017 | 0.62751 ± 0.00045 | 0.451 ± 0.029 | 0.649 ± 0.0077 | 0.486 ± 0.035 | 0.4661 ± 0.0017 | 0.616 ± 0.0074 | 0.524 ± 0.048
